From article PMC6125123

Biological target: HA-K^b (H-2K^b heavy chain with an N-terminal HA tag, no GFP) (mus musculus)
Assay: two-hybrid antibody micropattern assay (co-capture on live cells, confocal fluorescence microscopy); HA-tagged bait captured on printed anti-HA (12CA5) micropatterns on glass; GFP-tagged prey read out; co-transduced STF1 cells, 25°C overnight, then shifted to 37°C for 3-4 hr to dissociate …; no peptide

Sequence of HA-K^b (H-2K^b heavy chain with an N-terminal HA tag, no GFP) (mus musculus) (P01901 22-369): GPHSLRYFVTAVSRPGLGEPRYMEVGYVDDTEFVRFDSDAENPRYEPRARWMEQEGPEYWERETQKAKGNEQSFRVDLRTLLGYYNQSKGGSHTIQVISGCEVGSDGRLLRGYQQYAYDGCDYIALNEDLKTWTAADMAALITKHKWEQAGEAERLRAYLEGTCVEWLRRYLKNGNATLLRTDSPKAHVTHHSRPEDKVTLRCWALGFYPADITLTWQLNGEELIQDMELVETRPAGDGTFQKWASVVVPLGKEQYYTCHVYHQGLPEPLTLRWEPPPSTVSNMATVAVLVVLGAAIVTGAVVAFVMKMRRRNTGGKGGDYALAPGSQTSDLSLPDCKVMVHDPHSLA

## K^b-GFP (H-2K^b heavy chain with GFP fused to the cytoplasmic tail, no HA tag) (natural protein)
  ratio of GFP fluorescence intensity on pattern elements over total fluorescence intensity (background 1.1): 1.3
